Data: patent US10874712B2, “Methods, compounds and compositions for modulating blood brain barrier integrity and re-myelination” (University Health Network, priority 2015, dated 2020)

Test system: b.end3 cells
Assay: In vitro BBB permeability, Dextran-FITC extravasation in Boyden chamber
Type: cell-based, mouse
Conditions: b.end3 monolayer; 4 h pre-treatment (10 μg/mL sRGMc, 10 μg/mL C3 Transferase or 10 μM Y27632), then RGMa 18 h
Procedure: (A) Neogenin expression was analyzed on the membrane of b.end3 cells using immunohistochemical staining and by Western blot. (B) Crystal violet staining showing the b.end3 cell monolayer, (C) Representative diagram of the boyden chamber set up and (D) BBB permeability in b.end3 cells. Serum-starved cells were incubated for 4 h with RGMa (10 μg/ml), C3 Transferase (10 μg/mL) or Y27632 (10 μM) or sRGMc (10 μg/mL) and were then incubated with sRGMa (5 μg/mL) for 18 h followed by seeding of Dextran-FITC onto the upper chamber. Extravasation was measured over a period of 60 min as described in the Examples. n=3, performed in triplicates.
b.End3 endothelial cells were used to generate an in vitro model of the human EC barrier lining the choroid plexus. Briefly, b.end3 cells were plated on polyethylene-coated 0.4 μm pore size Boyden chambers (Corning) at a density of 2×10^5 cells per well in DMEM, and were allowed to grow for 72 h to reach confluency (verified using crystal violet staining). After 72 h, cells were serum starved for 6 h and pre-treated for 4 h with 10 μg/mL sRGMc, 10 μg/mL C3 Transferase or 10 μM Y27632. RGMa was then added to the wells for 18 h. The transwells were then transferred to a new plate containing 500 μl of HBSS and 200 μl 4-KDa Dextran-FITC (25 mg/ml; Sigma-Aldrich) was added to the upper chambers. Tracer diffusion across the EC monolayer was assessed in 30 min intervals for a period of 1.5 h. FITC signal, which represented the amount of extravasation through the monolayer was analyzed with using a microplate reader.

B1: sRGMc: truncated form of RGMc with the GPI anchor sequence removed, released as a soluble protein (SEQ ID NOs: 1 and 3) (protein, listed as Homo sapiens)
chain: CKILRCNAEYVSSTLSLRGGGSSGALRGGGGGGRGGGVGSGGLCRALRSYALCTRRTARTCRGDLAFHSAVHGIEDLMIQHNCSRQGPTAPPPPRGPALPGAGSGLPAPDPCDYEGRFSRLHGRPPGFLHCASFGDPHVRSFHHHFHTCRVQGAWPLLDNDFLFVQATSSPMALGANATATRKLTIIFKNMQECIDQKVYQAEVDNLPVAFEDGSINGGDRPGGSSLSIQTANPGNHVEIQAAYIGTTIIIRQTAGQLSFSIKVAEDVAMAFSAEQDLQLCVGGCPPSQRLSRSERNRRGAITIDTARRLCKEGLPVEDAYFHSCVFDVLISGDPNFTVAAQAALEDARAFLPDLEKLH
- extravasation of Dextran-FITC in sRGMa-treated cells: reproduced the RhoA/RhoK inhibitor effect
